In publication PMC3677097, “Structural Basis of Brr2-Prp8 Interactions and Implications for U5 snRNP Biogenesis and the Spliceosome Active Site” (Structure(London, England:1993), 2013):
Blank lines part the entries; values can stand above or below the binder they belong to.

Molecular target: Prp8^885–2413 tagged with a calmodulin-binding peptide (CBP) at the N terminus (yeast, UniProt P33334 885-2413)
Experiment: pull-down; calmodulin pull-down; CBP-tagged Prp8^885-2413 or its complexes as bait (0.5 μM), prey 1.0 μM; overnight at 4°C in 20 mM HEPES K+ pH 7.8, 300 mM KCl, 1 mM Mg(OAc)2, 2 mM CaCl2, 10 mM β-mercaptoethanol; calmodulin resin 3 hr, eluted with EGTA; SDS-PAGE
Conditions: both partners purified

Sequence of Prp8^885–2413 tagged with a calmodulin-binding peptide (CBP) at the N terminus (P33334 885-2413): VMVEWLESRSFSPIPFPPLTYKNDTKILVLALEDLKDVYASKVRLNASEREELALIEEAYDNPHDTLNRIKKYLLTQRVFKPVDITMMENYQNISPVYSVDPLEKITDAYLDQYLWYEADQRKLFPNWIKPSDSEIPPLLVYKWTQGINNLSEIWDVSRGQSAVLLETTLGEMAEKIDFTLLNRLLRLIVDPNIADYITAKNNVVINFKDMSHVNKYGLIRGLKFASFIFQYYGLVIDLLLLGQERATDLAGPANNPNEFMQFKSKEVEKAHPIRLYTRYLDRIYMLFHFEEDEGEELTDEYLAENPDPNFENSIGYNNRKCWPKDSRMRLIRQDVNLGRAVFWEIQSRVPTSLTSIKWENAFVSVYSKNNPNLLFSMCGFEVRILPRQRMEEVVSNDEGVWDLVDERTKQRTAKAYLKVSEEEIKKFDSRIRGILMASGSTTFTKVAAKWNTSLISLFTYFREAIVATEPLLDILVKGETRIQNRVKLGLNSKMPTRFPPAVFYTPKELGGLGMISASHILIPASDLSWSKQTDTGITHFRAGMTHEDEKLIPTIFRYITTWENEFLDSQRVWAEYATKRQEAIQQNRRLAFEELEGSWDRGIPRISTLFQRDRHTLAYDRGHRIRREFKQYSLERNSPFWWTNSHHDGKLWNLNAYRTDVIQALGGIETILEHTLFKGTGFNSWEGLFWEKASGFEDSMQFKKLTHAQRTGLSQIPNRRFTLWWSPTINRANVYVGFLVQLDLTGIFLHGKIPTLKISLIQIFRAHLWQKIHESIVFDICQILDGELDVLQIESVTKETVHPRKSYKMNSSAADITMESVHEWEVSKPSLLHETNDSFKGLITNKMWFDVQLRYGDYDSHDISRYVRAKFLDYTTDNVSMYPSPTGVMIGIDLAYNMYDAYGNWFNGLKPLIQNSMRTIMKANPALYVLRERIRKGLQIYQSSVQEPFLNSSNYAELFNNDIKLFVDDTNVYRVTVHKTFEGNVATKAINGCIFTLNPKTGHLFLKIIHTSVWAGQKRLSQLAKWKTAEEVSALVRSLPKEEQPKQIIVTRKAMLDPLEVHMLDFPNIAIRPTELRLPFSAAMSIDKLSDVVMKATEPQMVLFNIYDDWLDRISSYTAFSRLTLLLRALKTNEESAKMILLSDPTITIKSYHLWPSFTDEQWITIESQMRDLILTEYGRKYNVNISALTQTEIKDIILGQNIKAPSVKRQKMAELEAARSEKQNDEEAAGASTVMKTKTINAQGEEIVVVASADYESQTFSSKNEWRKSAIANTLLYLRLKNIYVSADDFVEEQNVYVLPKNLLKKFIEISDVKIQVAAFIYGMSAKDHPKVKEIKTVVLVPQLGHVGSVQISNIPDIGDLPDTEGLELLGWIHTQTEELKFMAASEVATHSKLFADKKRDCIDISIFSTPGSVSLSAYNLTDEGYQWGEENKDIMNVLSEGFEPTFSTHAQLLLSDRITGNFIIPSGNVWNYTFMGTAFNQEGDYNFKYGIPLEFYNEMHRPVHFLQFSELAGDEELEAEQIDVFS

binding result: binds
B1: Aar2 (natural protein, yeast, UniProt P32357 1-355, looked up)
chain: MNTVPFTSAPIEVTIGIDQYSFNVKENQPFHGIKDIPIGHVHVIHFQHADNSSMRYGYWFDCRMGNFYIQYDPKDGLYKMMEERDGAKFENIVHNFKERQMMVSYPKIDEDDTWYNLTEFVQMDKIRKIVRKDENQFSYVDSSMTTVQENELLKSSLQKAGSKMEAKNEDDPAHSLNYTVINFKSREAIRPGHEMEDFLDKSYYLNTVMLQGIFKNSSNYFGELQFAFLNAMFFGNYGSSLQWHAMIELICSSATVPKHMLDKLDEILYYQIKTLPEQYSDILLNERVWNICLYSSFQKNSLHNTEKIMENKYPELLGKDNEDDALIYGISDEERDDEDDEHNPTIVGGLYYQRP
notes: Aar2, U5 snRNP assembly factor, yeast; also called U5 snRNP assembly factor Aar2

binding result: binds
B2: Aar2ΔC (missing 23 C-terminal residues) (domain or fragment, yeast, UniProt P32357 1-332, looked up)
chain: MNTVPFTSAPIEVTIGIDQYSFNVKENQPFHGIKDIPIGHVHVIHFQHADNSSMRYGYWFDCRMGNFYIQYDPKDGLYKMMEERDGAKFENIVHNFKERQMMVSYPKIDEDDTWYNLTEFVQMDKIRKIVRKDENQFSYVDSSMTTVQENELLKSSLQKAGSKMEAKNEDDPAHSLNYTVINFKSREAIRPGHEMEDFLDKSYYLNTVMLQGIFKNSSNYFGELQFAFLNAMFFGNYGSSLQWHAMIELICSSATVPKHMLDKLDEILYYQIKTLPEQYSDILLNERVWNICLYSSFQKNSLHNTEKIMENKYPELLGKDNEDDALIYGISD
notes: Aar2, yeast, missing 23 C-terminal residues (so in the source)
